Values joined by “and” are separate entries in the source; they are usually repeats but may differ in a detail not shown here. Equal entries are not always repeated. “Also recorded” adds a separate entry of the source.
Key:
[1] = tested on: human leukemia HL 60(s) xenografts; assay: Human leukemia xenograft model; assay type: in vivo, athymic nude Balb/c mice; conditions: HL 60(s) xenograft, 21 days; for Tumor weight (X ± SD): n = 10
[2] = tested on: LS 180 colorectal adenocarcinoma cell line; assay: Anti-proliferative assay, LS 180; assay type: cell-based, human
[3] = tested on: IGR-37 melanoma cell line; assay: Anti-proliferative assay, IGR-37; assay type: cell-based, human
A-375 melanoma cell line = assay: Anti-proliferative assay, A-375; assay type: cell-based, human
[4] = General condition of the mice during treatment; assay type: in vivo; conditions: mice with human cancer xenografts, during the treatment period
[5] = tested on: human prostate cancer PC-3 xenografts; assay: Human prostate cancer xenograft model; assay type: in vivo, athymic nude Balb/c mice; conditions: PC-3 xenograft; for Inhibition rate / Tumor weight (mean ± SD): 30 days; for Tumor weight (mean ± SD): n = 10
Experimental: Colon cancer cell line (LS 180), melanoma cell line (A-375) and liver cancer cell line (Hep G2) were obtained from the American Type Culture Collection (ATCC, Rockville, Md.). Prostate cancer cell line (PC-3) was obtained from German National Resource Centre for Biological Material (DSMZ, Deutsche […] von Mikroorganismen and Zellkulturen, Germany). Lymphocytic cell line (HL 60(s) was purchased from Japanese Collection of Research Bioresources Cell Bank (JCRB, Japan). All cells were cultured according to their instructions (see Table 1). Briefly, LS 180 and Hep G2 were cultured in MEM medium. A-375 was cultured in DMEM. Both media were supplemented with 10% fetal bovine serum (FBS), 2 mM […] U/ml of penicillin, […] of streptomycin, 0.1 mM non-essential amino acids, and 1.0 mM sodium pyruvate. PC-3 and HL 60 (S) cells were cultured in RPMI 1640, supplemented with 10% FBS, 100 U/ml of penicillin, and […] of streptomycin. All cells were maintained in 5% CO2 atmosphere at 37° C. […] For the treatment of 5-FU, 30 mg/kg of 5-FU was i.v. administrated once every two days for a total of 5 times. The groups and treatment doses are summarized below: Once treatment commenced, tumors were measured with a caliper once a week. […] Mice were sacrificed at the day of treatment discontinuation (day 30 after commencement of the treatment). Solid tumors were isolated, photographed, and measured. […] C is the average tumor weight in control group after treatment.

[6] = tested on: SW 1116 colorectal adenocarcinoma cell line; assay: Anti-proliferative assay, SW 1116; assay type: cell-based, human
[7] = tested on: human melanoma A-375 xenografts; assay: Human melanoma xenograft model; assay type: in vivo, athymic nude Balb/c mice; conditions: A-375 xenograft; for Tumor weight (X ± SD): 30 days (28 days in the source), n = 10
[8] = tested on: Vesicular Stomatitis Virus (VSV) on WISH cells; assay type: cell-based; conditions: against VSV on WISH; units with reference to WHO international standards 94/786 and 95/650
[9] = tested on: human liver cancer Hep G2 xenografts; assay: Human liver cancer xenograft model; assay type: in vivo, athymic nude Balb/c mice; conditions: 30 days; for Tumor weight (mean ± SD): n = 10
[10] = tested on: A549 lung carcinoma cell line; assay: Anti-proliferative assay, A549; assay type: cell-based, human
[11] = tested on: LS174T colorectal adenocarcinoma cell line; assay: Anti-proliferative assay, LS174T; assay type: cell-based, human
[12] = tested on: IPC-298 melanoma cell line; assay: Anti-proliferative assay, IPC-298; assay type: cell-based, human
[13] = tested on: Hep3B hepatocellular carcinoma cell line; assay: Anti-proliferative assay, Hep3B; assay type: cell-based, human
[14] = tested on: human colon cancer LS 180 xenografts; assay: Human colon cancer xenograft model; assay type: in vivo, athymic nude Balb/c mice; conditions: LS 180 xenograft, 28 days; for Tumor weight (X ± SD): n = 10
[15] = tested on: KYSE 30 esophagus carcinoma cell line; assay: Anti-proliferative assay, KYSE 30; assay type: cell-based, human
[16] = tested on: HCT-8 colorectal adenocarcinoma cell line; assay: Anti-proliferative assay, HCT-8; assay type: cell-based, human
[17] = tested on: PLC/PRF/5 hepatoma cell line; assay: Anti-proliferative assay, PLC/PRF/5; assay type: cell-based, human
IGR-1 melanoma cell line = assay: Anti-proliferative assay, IGR-1; assay type: cell-based, human
[18] = tested on: DU 145 prostate carcinoma cell line; assay: Anti-proliferative assay, DU 145; assay type: cell-based, human
[19] = tested on: C-33A cervix carcinoma cell line; assay: Anti-proliferative assay, C-33A; assay type: cell-based, human
[20] = tested on: MKN 1 gastric adenocarcinoma cell line; assay: Anti-proliferative assay, MKN 1; assay type: cell-based, human
[21] = tested on: HL-60(S) lymphocytic cell line; assay: Anti-proliferative assay, HL-60(S); assay type: cell-based, human
[22] = tested on: L-428 Hodgkin's lymphoma cell line; assay: Anti-proliferative assay, L-428; assay type: cell-based, human
[23] = tested on: DLD-1 colorectal adenocarcinoma cell line; assay: Anti-proliferative assay, DLD-1; assay type: cell-based, human
[24] = tested on: PC-3 prostate carcinoma cell line; assay: Anti-proliferative assay, PC-3; assay type: cell-based, human
[25] = tested on: Hep G2 hepatocellular carcinoma cell line; assay: Anti-proliferative assay, Hep G2; assay type: cell-based, human; conditions: HepG2
HuH-7 hepatoma cell line = assay: Anti-proliferative assay, HuH-7; assay type: cell-based, human

B1: Novaferon: novel recombinant non-naturally occurring human interferon-like protein, 166 amino acids (SEQ ID No: 2), from Type I interferon shuffling library, expressed in E. coli (protein)
chain: CNLSQTHSLGSKRTLMLLAQMGKISLFSCLKDRHDFEFPQEEFDGNQFQKAQAISVLHELIQQTFNLFSTKESSAAWDEGLLDKFRTELYRQLNDLEACMMQEVGVEETPLMNADSILAVKKYFQRITLYLMEKKYSPCAWEVVRVEIMRSLSFSTNLQKRLRGKD
In the case of B1, the Inhibition rate ([1]; 1.25 μg/kg daily s.c.) is reported as 43.8%, the “Tumor weight (X ± SD)” value ([1]; 1.25 μg/kg daily s.c.) is reported as 2.091 ± 0.653 g and the Inhibition rate ([1]; 12.5 μg/kg daily s.c.) is reported as 55.2%. The “Tumor weight (X ± SD)” value ([1]; 12.5 μg/kg daily s.c.) was 1.668 ± 0.665 g, the Inhibition rate ([1]; 125 μg/kg daily s.c.) was 80.4% and the “Tumor weight (X ± SD)” value ([1]; 125 μg/kg daily s.c.) was 0.729 ± 0.332***@ g. The “Fold (Novaferon/HuIFN-α2b), increased tumor cell inhibition” value [2] was 350 fold, the “Fold (Novaferon/HuIFN-α2b), increased tumor cell inhibition” value [3] was 109 fold and the “Fold (Novaferon/HuIFN-α2b), increased tumor cell inhibition” value (A-375 melanoma cell line) was 733 fold. For the same molecule, the “general condition of treated mice (eating, behavior, weight loss)” value [4] was “did not induce weight loss, activity changes and other negative side-effects; also recorded: normal eating and activity behavior and no weight loss; also recorded: generally ate and behaved normally, and had no weight loss”, the Inhibition rate ([5]; 1.25 μg/kg daily s.c.) was 35.0% and the “Tumor weight (mean ± SD)” value ([5]; 1.25 μg/kg daily s.c.) was 1.266 ± 0.457 g. The Inhibition rate ([5]; 12.5 μg/kg daily s.c.) was 61.0%, the “Tumor weight (mean ± SD)” value ([5]; 12.5 μg/kg daily s.c.) was 0.759 ± 0.574 g and the Inhibition rate ([5]; 125 μg/kg daily s.c.) was 95.3% and 95.1%. For the same molecule, the “Tumor weight (mean ± SD)” value ([5]; 125 μg/kg daily s.c.) was 0.09±0.081 g and 0.091±0.081 g and 0.091 ± 0.081***@@@ g, the “average volume of tumor mass” value ([5]; 125 μg/kg daily s.c., day 28) was 107.9±68.7 mm^3 and the “average volume of tumor mass” value ([5]; 125 μg/kg daily s.c., day 30) was 122.1±100.7 mm^3. The “Fold (Novaferon/HuIFN-α2b), increased tumor cell inhibition” value [6] was 222 fold, the Inhibition rate ([7]; 1.25 μg/kg daily s.c.) was 40.1% and the “Tumor weight (X ± SD)” value ([7]; 1.25 μg/kg daily s.c.) was 1.830 ± 0.289 g. The Inhibition rate ([7]; 12.5 μg/kg daily s.c.) was 75.0%, the “Tumor weight (X ± SD)” value ([7]; 12.5 μg/kg daily s.c.) was 0.763±0.187 g and 0.763 ± 0.187***&& $$$ g and the Inhibition rate ([7]; 125 μg/kg daily s.c.) was 82.8%. For the same molecule, the “Tumor weight (X ± SD)” value ([7]; 125 μg/kg daily s.c.) was 0.527±0.149 g and 0.527 ± 0.149***&&&@@@ g, the anti-viral activity [8] was 2.5×10^9 IU/mg and the Inhibition rate ([9]; 1.25 μg/kg daily s.c.) was 63.4%. The average tumor volume ([9]; 1.25 μg/kg daily s.c.) was 783.2±270.0 mm^3, the “Tumor weight (mean ± SD)” value ([9]; 1.25 μg/kg daily s.c.) was 0.797 ± 0.397 g and the Inhibition rate ([9]; 12.5 μg/kg daily s.c.) was 85.3%. The average tumor volume ([9]; 12.5 μg/kg daily s.c.) was 439.3±414.3 mm^3, the “Tumor weight (mean ± SD)” value ([9]; 12.5 μg/kg daily s.c.) was 0.321 ± 0.300 g and the Inhibition rate ([9]; 125 μg/kg daily s.c.) was 96.6%. For the same molecule, the average tumor volume ([9]; 125 μg/kg daily s.c.) was 104.6±56.5 mm^3, the “Tumor weight (mean ± SD)” value ([9]; 125 μg/kg daily s.c.) was 0.074±0.083 g and 0.074 ± 0.083***@ g and the “Fold (Novaferon/HuIFN-α2b), increased tumor cell inhibition” value [10] was 19 fold. The “Fold (Novaferon/HuIFN-α2b), increased tumor cell inhibition” value [11] was 74 fold, the “Fold (Novaferon/HuIFN-α2b), increased tumor cell inhibition” value [12] was 70 fold and the “Fold (Novaferon/HuIFN-α2b), increased tumor cell inhibition” value [13] was 58 fold. The Inhibition rate ([14]; 1.25 μg/kg daily s.c.) was 75.0%, the “Tumor weight (X ± SD)” value ([14]; 1.25 μg/kg daily s.c.) was 1.043 ± 0.433 g and the Inhibition rate ([14]; 12.5 μg/kg daily s.c.) was 80.5%. For the same molecule, the “Tumor weight (X ± SD)” value ([14]; 12.5 μg/kg daily s.c.) was 0.815 ± 0.221 g, the Inhibition rate ([14]; 125 μg/kg daily s.c.) was 92.5% and the “Tumor weight (X ± SD)” value ([14]; 125 μg/kg daily s.c.) was 0.314 ± 0.086 &&&@@@ g. The “Fold (Novaferon/HuIFN-α2b), increased tumor cell inhibition” value [15] was 683 fold, the “Fold (Novaferon/HuIFN-α2b), increased tumor cell inhibition” value [16] was 212 fold and the “Fold (Novaferon/HuIFN-α2b), increased tumor cell inhibition” value [17] was 16 fold. For the same molecule, the “Fold (Novaferon/HuIFN-α2b), increased tumor cell inhibition” value (IGR-1 melanoma cell line) was 876 fold, the “Fold (Novaferon/HuIFN-α2b), increased tumor cell inhibition” value [18] was 36 fold and the “Fold (Novaferon/HuIFN-α2b), increased tumor cell inhibition” value [19] was 143 fold. The “Fold (Novaferon/HuIFN-α2b), increased tumor cell inhibition” value [20] was 207 fold, the “Fold (Novaferon/HuIFN-α2b), increased tumor cell inhibition” value [21] was 306 fold and the “Fold (Novaferon/HuIFN-α2b), increased tumor cell inhibition” value [22] was 1134 fold. The “Fold (Novaferon/HuIFN-α2b), increased tumor cell inhibition” value [23] was 282 fold, the “Fold (Novaferon/HuIFN-α2b), increased tumor cell inhibition” value [24] was 128 fold and the “Fold (Novaferon/HuIFN-α2b), increased tumor cell inhibition” value [25] was 43 fold. For the same molecule, the “Fold (Novaferon/HuIFN-α2b), increased tumor cell inhibition” value (HuH-7 hepatoma cell line) was 58 fold.
